From patent US20140087995A1 (published 2014) come the findings set out here.

Numbered stars: 1 amine (or outer) side, 2 acyl side, 3 side chain; on linkers, the order of the positions; unused ones are H or OH. Bridge positions count the residues as written; N and C are the ends. Side chains are listed from the residue outwards. Ends that are not written are not given here. * marks the point of attachment. C20 diacid = O=C(O)CCCCCCCCCCCCCCCCCCC(=O)*; γGlu = O=C(O)[C@H](CCC(=O)[*:2])N[*:1]; AEEA = NCCOCCOCC(=O)O

In assay [1] the target is T1, human calcitonin receptor (human, UniProt P30988 25-474).
T1 construct: whole, on cells; Used as cell membranes; also called hCTR; hCT
T1 sequence (looked up): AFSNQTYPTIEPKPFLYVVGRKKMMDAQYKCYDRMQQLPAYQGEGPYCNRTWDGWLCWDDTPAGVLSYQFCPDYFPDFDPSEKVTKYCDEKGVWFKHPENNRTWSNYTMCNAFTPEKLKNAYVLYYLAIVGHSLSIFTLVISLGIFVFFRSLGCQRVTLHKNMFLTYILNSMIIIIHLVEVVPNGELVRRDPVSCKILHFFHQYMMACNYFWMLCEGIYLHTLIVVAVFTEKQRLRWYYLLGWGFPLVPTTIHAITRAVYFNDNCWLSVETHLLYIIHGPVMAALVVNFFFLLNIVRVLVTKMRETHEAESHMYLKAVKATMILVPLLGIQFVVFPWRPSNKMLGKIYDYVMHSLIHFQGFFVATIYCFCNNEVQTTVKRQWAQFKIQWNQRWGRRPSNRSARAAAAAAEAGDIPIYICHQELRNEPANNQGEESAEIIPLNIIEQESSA
The assay is described as follows: ratio of hCTR IC50 to hAmylin-R IC50 (reference: human amylin receptor). As to the method:
The resulting pellet was resuspended, homogenized and centrifuged (20.000 rpm, 15 min) in a buffer containing 20 mM Na-HEPES and 0.1 mM EDTA (pH 7.4, buffer 2). The resulting pellet was resuspended in buffer 2 and protein concentration was measured (BCA protein Assay, Pierce). The homogenate was kept cold during the whole procedure. The membranes were kept at −80° C. until use. The assay was performed in a 384 well Optiplate (PerkinElmer) in a total volume of 40 ul. Membranes were mixed with SPA beads. Final concentration of membranes 35 ng/μL final and SPA beads was 0.05 mg/well. Test-compounds were dissolved in DMSO and further diluted in assay buffer (50 mM Hepes, pH 7.4, 1 mM CaCl2, 5 mM MgCl₂, 0.1% OA and 0.02% Tween20). […] The final mixture was incubated with shaking at 400 rpm for 120 min at 25° C. prior to centrifugation (1500 rpm, 10 min). Samples were analyzed on TopCounter™ (Packard). The IC₅₀ was calculated using (one site binding competition analysis) GraphPad Prism5 as a measure of receptor affinity.
Membranes were prepared in the following way; the cells were rinsed with PBS and incubated with Versene for approximately 5 min before harvesting. The cells were flushed with PBS and the cell-suspension was centrifuged for 5 min at 1000 rpm. Cells were homogenized (Ultrathurrax) in a buffer containing 20 mM Na-HEPES and 10 mM EDTA (pH 7.4) and centrifuged at 20.000 rpm for 15 min. The resulting pellet was resuspended, homogenized and centrifuged (20.000 rpm, 15 min) in a buffer containing 20 mM Na-HEPES and 0.1 mM EDTA (pH 7.4, buffer 2). The resulting pellet was resuspended in buffer 2 and protein concentration was measured (BCA protein Assay, Pierce). The homogenate was kept cold during the whole procedure. The membranes were kept at −80° C. until use. Assay was performed in a 384 well Optiplate (PerkinElmer) in a total volume of 40 ul. Membranes were mixed with SPA beads.

Assay [2] addresses T1, human calcitonin receptor. The assay is described as follows: SPA competition on BHK cell membranes, 125I-calcitonin as radioligand (Assay VII). As to the method:
Membranes were prepared in the following way; the cells were rinsed with PBS and incubated with Versene for approximately 5 min before harvesting. The cells were flushed with PBS and the cell-suspension was centrifuged for 5 min at 1000 rpm. Cells were homogenized (Ultrathurrax) in a buffer containing 20 mM Na-HEPES and 10 mM EDTA (pH 7.4) and centrifuged at 20.000 rpm for 15 min. The resulting pellet was resuspended, homogenized and centrifuged (20.000 rpm, 15 min) in a buffer containing 20 mM Na-HEPES and 0.1 mM EDTA (pH 7.4, buffer 2). The resulting pellet was resuspended in buffer 2 and protein concentration was measured (BCA protein Assay, Pierce). The homogenate was kept cold during the whole procedure. The membranes were kept at −80° C. until use. Assay was performed in a 384 well Optiplate (PerkinElmer) in a total volume of 40 ul. Membranes were mixed with SPA beads. Final concentration of membranes 35 ng/μL final and Final concentration of SPA beads was 0.05 mg/well. Test-compounds were dissolved in DMSO and further diluted in assay buffer (50 mM Hepes, pH 7.4, 1 mM CaCl2, 5 mM MgCl₂, 0.1% OA and 0.02% Tween20). […] The final mixture was incubated for 120 min with shaking at 400 rpm at 25° C. prior to centrifugation (1500 rpm, 10 min). Samples were analyzed on TopCounter™ (Packard). The […] was calculated using (one site binding competition analysis) GraphPad Prism5 as a measure of receptor affinity.

B1: N^ε1-[2-[2-[2-[[2-[2-[2-[[(4S)-4-carboxy-4-(19-carboxynonadecanoylamino)butanoyl]amino]ethoxy]ethoxy]acetyl]amino]ethoxy]ethoxy]acetyl]-[Arg17,Pro21,Pro27,Pro31 … (peptide)
peptide: K([AEEA-AEEA-γGlu-C20 diacid])CNTATCATQRLANFLRHSSPNFGAIPSSTPVGSNTY-NH2
modifications: disulfide 2-7; N-terminus assumed
SMILES: CC[C@H](C)[C@H](NC(=O)[C@H](C)NC(=O)CNC(=O)[C@H](Cc1ccccc1)NC(=O)[C@H](CC(N)=O)NC(=O)[C@@H]1CCCN1C(=O)[C@H](CO)NC(=O)[C@H](CO)NC(=O)[C@H](Cc1c[nH]cn1)NC(=O)[C@H](CCCNC(=N)N)NC(=O)[C@H](CC(C)C)NC(=O)[C@H](Cc1ccccc1)NC(=O)[C@H](CC(N)=O)NC(=O)[C@H](C)NC(=O)[C@H](CC(C)C)NC(=O)[C@H](CCCNC(=N)N)NC(=O)[C@H](CCC(N)=O)NC(=O)[C@@H](NC(=O)[C@H](C)NC(=O)[C@@H]1CSSC[C@H](NC(=O)[C@@H](N)CCCCNC(=O)COCCOCCNC(=O)COCCOCCNC(=O)CC[C@H](NC(=O)CCCCCCCCCCCCCCCCCCC(=O)O)C(=O)O)C(=O)N[C@@H](CC(N)=O)C(=O)N[C@@H]([C@@H](C)O)C(=O)N[C@@H](C)C(=O)N[C@@H]([C@@H](C)O)C(=O)N1)[C@@H](C)O)C(=O)N1CCC[C@H]1C(=O)N[C@@H](CO)C(=O)N[C@@H](CO)C(=O)N[C@H](C(=O)N1CCC[C@H]1C(=O)N[C@H](C(=O)NCC(=O)N[C@@H](CO)C(=O)N[C@@H](CC(N)=O)C(=O)N[C@H](C(=O)N[C@@H](Cc1ccc(O)cc1)C(N)=O)[C@@H](C)O)C(C)C)[C@@H](C)O
notes: also called compound 96
The IC50 is the concentration at which inhibition is half-maximal. As for B1, the “Ratio hCT/hAmylin binding” value in assay [1] came out at 79.6. The IC50 in assay [2] was found to be 0.0132 µM.

B2: N^ε1-[2-[2-[2-[[(4S)-4-carboxy-4-(19-carboxynonadecanoylamino)butanoyl]amino]ethoxy]ethoxy]acetyl]-[Arg14,Arg17,Pro21,Pro27,Pro31]-h-amylin (peptide)
peptide: K([AEEA-γGlu-C20 diacid])CNTATCATQRLARFLRHSSPNFGAIPSSTPVGSNTY-NH2
modifications: disulfide 2-7; N-terminus assumed
SMILES: CC[C@H](C)[C@H](NC(=O)[C@H](C)NC(=O)CNC(=O)[C@H](Cc1ccccc1)NC(=O)[C@H](CC(N)=O)NC(=O)[C@@H]1CCCN1C(=O)[C@H](CO)NC(=O)[C@H](CO)NC(=O)[C@H](Cc1c[nH]cn1)NC(=O)[C@H](CCCNC(=N)N)NC(=O)[C@H](CC(C)C)NC(=O)[C@H](Cc1ccccc1)NC(=O)[C@H](CCCNC(=N)N)NC(=O)[C@H](C)NC(=O)[C@H](CC(C)C)NC(=O)[C@H](CCCNC(=N)N)NC(=O)[C@H](CCC(N)=O)NC(=O)[C@@H](NC(=O)[C@H](C)NC(=O)[C@@H]1CSSC[C@H](NC(=O)[C@@H](N)CCCCNC(=O)COCCOCCNC(=O)CC[C@H](NC(=O)CCCCCCCCCCCCCCCCCCC(=O)O)C(=O)O)C(=O)N[C@@H](CC(N)=O)C(=O)N[C@@H]([C@@H](C)O)C(=O)N[C@@H](C)C(=O)N[C@@H]([C@@H](C)O)C(=O)N1)[C@@H](C)O)C(=O)N1CCC[C@H]1C(=O)N[C@@H](CO)C(=O)N[C@@H](CO)C(=O)N[C@H](C(=O)N1CCC[C@H]1C(=O)N[C@H](C(=O)NCC(=O)N[C@@H](CO)C(=O)N[C@@H](CC(N)=O)C(=O)N[C@H](C(=O)N[C@@H](Cc1ccc(O)cc1)C(N)=O)[C@@H](C)O)C(C)C)[C@@H](C)O
notes: also called compound 64
For the molecule B2, the “Ratio hCT/hAmylin binding” value in assay [1] amounted to 126. Moreover, the IC50 in assay [2] is 0.056 µM.

B3: N^ε1-[2-[2-[2-[[2-[2-[2-[[(4S)-4-carboxy-4-(19-carboxynonadecanoylamino)butanoyl]amino]ethoxy]ethoxy]acetyl]amino]ethoxy]ethoxy]acetyl]-[Arg17,Pro21,Pro27,Pro34 … (peptide)
peptide: K([AEEA-AEEA-γGlu-C20 diacid])CNTATCATQRLANFLRHSSPNFGAIPSSTNVGPNTY-NH2
modifications: disulfide 2-7; N-terminus assumed
SMILES: CC[C@H](C)[C@H](NC(=O)[C@H](C)NC(=O)CNC(=O)[C@H](Cc1ccccc1)NC(=O)[C@H](CC(N)=O)NC(=O)[C@@H]1CCCN1C(=O)[C@H](CO)NC(=O)[C@H](CO)NC(=O)[C@H](Cc1c[nH]cn1)NC(=O)[C@H](CCCNC(=N)N)NC(=O)[C@H](CC(C)C)NC(=O)[C@H](Cc1ccccc1)NC(=O)[C@H](CC(N)=O)NC(=O)[C@H](C)NC(=O)[C@H](CC(C)C)NC(=O)[C@H](CCCNC(=N)N)NC(=O)[C@H](CCC(N)=O)NC(=O)[C@@H](NC(=O)[C@H](C)NC(=O)[C@@H]1CSSC[C@H](NC(=O)[C@@H](N)CCCCNC(=O)COCCOCCNC(=O)COCCOCCNC(=O)CC[C@H](NC(=O)CCCCCCCCCCCCCCCCCCC(=O)O)C(=O)O)C(=O)N[C@@H](CC(N)=O)C(=O)N[C@@H]([C@@H](C)O)C(=O)N[C@@H](C)C(=O)N[C@@H]([C@@H](C)O)C(=O)N1)[C@@H](C)O)C(=O)N1CCC[C@H]1C(=O)N[C@@H](CO)C(=O)N[C@@H](CO)C(=O)N[C@H](C(=O)N[C@@H](CC(N)=O)C(=O)N[C@H](C(=O)NCC(=O)N1CCC[C@H]1C(=O)N[C@@H](CC(N)=O)C(=O)N[C@H](C(=O)N[C@@H](Cc1ccc(O)cc1)C(N)=O)[C@@H](C)O)C(C)C)[C@@H](C)O
notes: also called compound 98
Regarding B3, the “Ratio hCT/hAmylin binding” value in assay [1] worked out at 74.1. Also, the half-inhibitory concentration (IC50) in assay [2] was 0.00674 µM.

B4: N^ε1-[2-[2-[2-[[(4S)-4-carboxy-4-(19-carboxynonadecanoylamino)butanoyl]amino]ethoxy]ethoxy]acetyl]-[Ala14,Arg17,Pro21,Pro27,Pro31]-h-amylin (peptide)
peptide: K([AEEA-γGlu-C20 diacid])CNTATCATQRLAAFLRHSSPNFGAIPSSTPVGSNTY-NH2
modifications: disulfide 2-7; N-terminus assumed
SMILES: CC[C@H](C)[C@H](NC(=O)[C@H](C)NC(=O)CNC(=O)[C@H](Cc1ccccc1)NC(=O)[C@H](CC(N)=O)NC(=O)[C@@H]1CCCN1C(=O)[C@H](CO)NC(=O)[C@H](CO)NC(=O)[C@H](Cc1c[nH]cn1)NC(=O)[C@H](CCCNC(=N)N)NC(=O)[C@H](CC(C)C)NC(=O)[C@H](Cc1ccccc1)NC(=O)[C@H](C)NC(=O)[C@H](C)NC(=O)[C@H](CC(C)C)NC(=O)[C@H](CCCNC(=N)N)NC(=O)[C@H](CCC(N)=O)NC(=O)[C@@H](NC(=O)[C@H](C)NC(=O)[C@@H]1CSSC[C@H](NC(=O)[C@@H](N)CCCCNC(=O)COCCOCCNC(=O)CC[C@H](NC(=O)CCCCCCCCCCCCCCCCCCC(=O)O)C(=O)O)C(=O)N[C@@H](CC(N)=O)C(=O)N[C@@H]([C@@H](C)O)C(=O)N[C@@H](C)C(=O)N[C@@H]([C@@H](C)O)C(=O)N1)[C@@H](C)O)C(=O)N1CCC[C@H]1C(=O)N[C@@H](CO)C(=O)N[C@@H](CO)C(=O)N[C@H](C(=O)N1CCC[C@H]1C(=O)N[C@H](C(=O)NCC(=O)N[C@@H](CO)C(=O)N[C@@H](CC(N)=O)C(=O)N[C@H](C(=O)N[C@@H](Cc1ccc(O)cc1)C(N)=O)[C@@H](C)O)C(C)C)[C@@H](C)O
notes: also called compound 72
For the molecule B4, the “Ratio hCT/hAmylin binding” value in assay [1] is 247. For the same molecule, in assay [2], the IC50 was 0.0424 µM.
